# In patent publication US20260008852A1 (CRYSTAL BIOSCIENCE, published 2026):
# Positions count from the first letter of the chain named.
# T1: His-tagged human B7-H3 (human, UniProt Q5ZPR3-2 29-245, limits assumed)
# T1 construct: Bought His-tagged protein coated on the ELISA plate; also called hu B7-H3; CD276
# T1 sequence (looked up): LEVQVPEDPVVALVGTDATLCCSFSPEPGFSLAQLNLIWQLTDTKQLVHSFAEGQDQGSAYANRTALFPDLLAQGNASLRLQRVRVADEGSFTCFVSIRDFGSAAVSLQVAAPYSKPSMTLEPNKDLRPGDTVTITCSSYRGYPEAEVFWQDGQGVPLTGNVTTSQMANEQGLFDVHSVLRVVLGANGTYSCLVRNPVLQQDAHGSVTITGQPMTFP
# T2: His-tagged cynomolgus monkey B7-H3 (cynomolgus monkey)
# T2 chain: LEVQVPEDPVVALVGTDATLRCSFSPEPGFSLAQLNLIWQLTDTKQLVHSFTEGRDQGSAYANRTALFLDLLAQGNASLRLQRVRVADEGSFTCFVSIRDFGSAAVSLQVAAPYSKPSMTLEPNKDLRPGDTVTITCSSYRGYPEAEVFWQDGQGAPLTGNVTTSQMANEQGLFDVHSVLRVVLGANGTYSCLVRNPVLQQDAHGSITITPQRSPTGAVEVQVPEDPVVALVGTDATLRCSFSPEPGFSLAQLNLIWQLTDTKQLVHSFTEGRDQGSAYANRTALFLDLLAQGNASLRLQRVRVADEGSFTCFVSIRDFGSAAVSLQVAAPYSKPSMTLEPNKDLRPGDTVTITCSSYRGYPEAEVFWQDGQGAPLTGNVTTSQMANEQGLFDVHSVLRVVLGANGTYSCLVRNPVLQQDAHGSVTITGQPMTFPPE
# T3: His-tagged mouse B7-H3 (mouse, UniProt Q8VE98 29-244, limits assumed)
# T3 construct: Bought His-tagged protein coated on the ELISA plate; also called mu B7-H3; murine B7-H3
# T3 sequence (looked up): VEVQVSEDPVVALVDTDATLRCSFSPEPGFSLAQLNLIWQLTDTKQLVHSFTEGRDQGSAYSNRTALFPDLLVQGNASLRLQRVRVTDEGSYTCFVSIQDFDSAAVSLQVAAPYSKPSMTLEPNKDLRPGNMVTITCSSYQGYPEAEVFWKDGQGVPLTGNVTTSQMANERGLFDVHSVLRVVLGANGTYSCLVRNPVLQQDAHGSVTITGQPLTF
# T4: B7-H3 on B7-H3-expressing CHO cells (Genescript) (UniProt Q5ZPR3 29-534, limits assumed)
# T4 construct: whole, on cells; also called CHO-K1/B7-H3; MFI B7-H3
# T4 sequence (looked up): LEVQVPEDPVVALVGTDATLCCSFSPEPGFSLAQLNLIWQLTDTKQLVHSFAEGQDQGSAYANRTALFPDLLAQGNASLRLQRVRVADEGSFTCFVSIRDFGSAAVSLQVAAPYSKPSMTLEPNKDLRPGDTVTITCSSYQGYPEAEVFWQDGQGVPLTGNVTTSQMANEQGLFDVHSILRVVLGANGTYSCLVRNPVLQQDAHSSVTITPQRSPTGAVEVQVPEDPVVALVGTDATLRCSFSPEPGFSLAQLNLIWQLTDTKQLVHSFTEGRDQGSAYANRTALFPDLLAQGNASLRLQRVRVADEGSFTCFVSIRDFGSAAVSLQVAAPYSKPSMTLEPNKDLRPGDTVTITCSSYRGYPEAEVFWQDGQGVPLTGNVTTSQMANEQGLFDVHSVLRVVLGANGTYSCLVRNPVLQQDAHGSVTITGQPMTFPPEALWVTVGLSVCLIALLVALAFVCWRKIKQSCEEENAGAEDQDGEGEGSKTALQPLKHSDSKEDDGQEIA
# B1: 40633p1.1.F2 (scFv, V domains shown)
# VH: EVQLLESGGGLVQPGGSLRLSCVASGLTFNGFAMTWVRQAPGKGLEWVSGISWNSGSIYYADSVKGRFTISRDNSKNTVYLQMSSLRAEDTAIYYCAKNWNDYYNSMDVWGQGTTVTVSS
# VL: QSVLTQPPSASGTPGQRVTISCSGSRSNIGTKYVYWYQQFPGTAPKLLIYTTDRRPSGVPDRFSGSKSGTSASLAISGLQSEDEADYYCSAWDDRLNAWVFGGGTKLTVL
# notes: Tested as scFv-Fc (Expi293 supernatant)
# B2: 40633p1.1.E3 (scFv, V domains shown)
# VH: EVQLLESGGGLVQPGGSLRLSCAASGFTVSYYGMSWVRQAPGKGLEWVSAIKQDGSEKYYADSVKGRFTISRDNSKNTLYLQMNSLRAEDTAVYYCARHWNDYSNAMNVWGQGTTVTVSS
# VL: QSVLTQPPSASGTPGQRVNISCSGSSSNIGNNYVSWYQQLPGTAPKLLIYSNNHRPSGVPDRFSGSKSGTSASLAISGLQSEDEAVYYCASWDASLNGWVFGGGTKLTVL
# notes: as for B1
# B3: 40633p1.1.G5 (scFv, V domains shown)
# VH: B2 VH with T28I, S30N, A40P, N77T, A106G
# VL: QSVLTQPPSASGTPGQRVTISCSGSWSNIGSYNSHWYQKLPGTAPKLLIYTTDRRPSGVPDRFSGSKSGTSASLAISGLQSEDEADYYCGTWDDSLNVWVFGGGTKLTVL
# notes: as for B1
# B4: 40633p1.1.E6 (scFv, V domains shown)
# VH: EVQLLESGGGLVQPGGSLRLSCAASGLTFSSYAMNWVRQAPGKGLEWVAGIGGSGSSTYHTDSVKGRFTISRDNSKNTLYLQMSSLRAEDAAVYYCAKEDHWSGGMDVWGQGTTVTVSS
# VL: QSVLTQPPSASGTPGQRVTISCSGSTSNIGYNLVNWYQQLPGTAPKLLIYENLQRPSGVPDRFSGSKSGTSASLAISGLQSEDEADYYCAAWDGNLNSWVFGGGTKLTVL
# notes: as for B1
# B5: 40633p1.1.G3 (scFv, V domains shown)
# VH: B4 VH with S84N
# VL: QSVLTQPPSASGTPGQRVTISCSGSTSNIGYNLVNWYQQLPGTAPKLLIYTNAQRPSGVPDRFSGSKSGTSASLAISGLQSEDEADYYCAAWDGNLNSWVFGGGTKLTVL
# notes: as for B1
# B6: 40633p1.1.G10 (scFv, V domains shown)
# VH: EVQLLESGGGLVEPGGSLRLSCAASGFSFSSYGMHWVRQAPGKGLDWVAVINGEGSGTYYADSVKGRFTISRDNSKSTLYLQMNSLRAEDTAVYYCTKYYYNYAMDVWGQGTTVTVSS
# VL: QSVLTQPPSASGTPGQRVTISCSGSRTDIGTTSVNWYQQLPGTAPKLLIYQSHQRPSGVPDRFSGSKSGTSASLAISGLQSEDEADYYCASWDASQNTWVFGGGTKLTVL
# notes: as for B1
# B7: 40511p1.1.D6 (scFv, V domains shown)
# VH: DVQLVESGGGVVRPGESLTLSCAASGFTINSYAVSWVRQAPGEGLEWVSGISGSGVRYYADSVKGRFTISRDNSNNTLYLQMNSLRAEDTAVYYCARSNKVTWNNFFDYWGLGTLVTVSS
# VL: EVVLTQSPGTLTLSPGERATLSCRASRSILTSLAWYQQKPGQAPRLLIYNTVTRATGIPARFSGSGSGTEFTLTINSLQSEDFAVYYCQQYYDWPPLTFGGGTKVEIK
# notes: as for B1
# B8: 40511p1.1.G3 (scFv, V domains shown)
# VH: B7 VH with N73D
# VL: B7 VL
# notes: as for B1
# B9: 40633p1.1.D11 (scFv, V domains shown)
# VH: EVQLLESGGGLVQPGGSLRLSCAASGFTFRSYAMSWVRQAPGKGLEWVAYIGSSGGTTYYADSVKGRFTISRDNSKNTLYLQMNSLRAEDTAVYYCVKESYYYMDVWGQGTTVTVSS
# VL: QSVLTQPPSASGTPGQRVTISCSATISNIDINRVSWYQQLPGTAPKLLIFNSQRPSGVPDRFSGSKSGTSASLAISGLQSEDEADYYCATWDDSLNSWVFGGGTKLTVL
# notes: as for B1
# B10: 40633p1.1.H11 (scFv, V domains shown)
# VH: EVQLLESGGGLVQPGGSLRLSCAASGFTFSSYPMTWVRQAPGKGLEWVADINSGGGTTLYADAVKGRFTISRDNSKNIVYLQMNSLRGEDTAVYYCAKHLDYYSYGMDVWGQGTTVTVSS
# VL: QSVLTQPPSASGTPGQRVTISCSGVTSKIGSKYVHWYQQLPGTAPKLLIYRNFERPSGVPDRFSGSTSGTSASLAISGLQSEDEADYYCATWEGALNGWVFGGGTKLTVL
# notes: as for B1
# B11: 40633p1.2.D11 (scFv, V domains shown)
# VH: EVQLESGGGLVQPGGSLRLSCAASGFTVSYYGMSWVRQAPGKGLEWVSAIKQDGSEKYYADSVKGRFTISRDNSKNTLYLQMNSLRAEDTAVYYCARHWNDYSNAMNVWGQGTTVTVSS
# VL: QSVLTQPPSASGTPGQRVTISCSGSTSNIAIDFVNWYQQLPGTAPKLLIYTIDQRPSGVPDRFSGSKSGTSASLAISGLQSEDEAVYYCASWDASLNGWVFGRGTKLTVL
# notes: as for B1
# B12: 40633p1.2.D1 (scFv, V domains shown)
# VH: EVQLLESGGGLVQPGGSLRLSCAASGFTFDVYGMSWVRQAPGKGLEWVSAINWNGGSTYYADSVKGRFTISRDNSENTLYLQMNSLRAEDTAVYYCAKEKWKHFIYYGMDVWGQGTTVTVSS
# VL: QSVLTQPASASGTPGQTVSISCSGSSSNIDSNTANWYQQLPGTAPKLLIYSNNQRPSGVPDRFSGSKSDTSASLAISGLQSEDEGDYYCSAWDDNLNGWLFGGGTKLTVL
# notes: as for B1
# B13: 40633p1.2.E5 (scFv, V domains shown)
# VH: B12 VH with V31G, N52S, W53G, G55S, T58I, E76K, V93A
# VL: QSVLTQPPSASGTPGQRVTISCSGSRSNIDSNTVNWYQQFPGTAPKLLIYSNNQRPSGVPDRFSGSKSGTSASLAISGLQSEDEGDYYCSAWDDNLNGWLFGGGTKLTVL
# notes: as for B1
# B14: 40633p1.1.G7 (scFv, V domains shown)
# VH: EVQLLESGGGLVQPGGSLRLSCAASGFTFSGSAMNWVRQAPGKGLEWVSAINSGGTTIYYADSVKGRFTVSRDNSKNTLYLQMNSLRAEDTAVYYCVKLDFYYGMDVWGEGTTVTVSS
# VL: QSVVTQPPSASGTPGQRVTVSCSGSSSNVGSKYVQWYQQLPGTAPKLLIYATDRRPSGVPDRFSGSKSGTSASLAISGLQSEDEADYYCASWDDSLNAWVFGGGTKLTVL
# notes: as for B1
# Molecular target: T1, His-tagged human B7-H3
# Assay: ELISA OD450 on hu B7-H3 over OD450 on mu B7-H3
row,Binder,hu:mu ratio
1,B1,1.47
2,B2,3.01
3,B3,3.09
4,B4,2.44
5,B5,1.28
6,B6,1.32
7,B7,1.19
8,B8,1.24
9,B9,1.18
10,B10,1.1
11,B11,1.49
12,B12,1.08
13,B13,1.12
14,B14,1.15

# Molecular target: T2, His-tagged cynomolgus monkey B7-H3
# Assay: ELISA, coated His-tagged antigen, scFv-Fc 1 ug/ml
row,Binder,ELISA OD450 @ 1 ug/ml
1,B1,1.77 OD450
2,B2,1.63 OD450
3,B3,1.49 OD450
4,B4,1.53 OD450
5,B5,1.89 OD450
6,B6,1.81 OD450
7,B7,2.11 OD450
8,B8,1.97 OD450
9,B9,1.91 OD450
10,B10,1.92 OD450
11,B11,1.95 OD450
12,B12,1.94 OD450
13,B13,2.08 OD450
14,B14,1.95 OD450

# Molecular target: T1, His-tagged human B7-H3
# Assay: ELISA, coated His-tagged antigen, scFv-Fc 1 ug/ml
row,Binder,ELISA OD450 @ 1 ug/ml
1,B1,1.76 OD450
2,B2,0.554 OD450
3,B3,0.794 OD450
4,B4,1.39 OD450
5,B5,2.14 OD450
6,B6,2.2 OD450
7,B7,1.92 OD450
8,B8,2.13 OD450
9,B9,1.72 OD450
10,B10,2.07 OD450
11,B11,1.53 OD450
12,B12,1.49 OD450
13,B13,2.15 OD450
14,B14,2.16 OD450

# Molecular target: T3, His-tagged mouse B7-H3
# Assay: ELISA, coated His-tagged antigen, scFv-Fc 1 ug/ml
row,Binder,ELISA OD450 @ 1 ug/ml
1,B1,1.2 OD450
2,B2,0.184 OD450
3,B3,0.257 OD450
4,B4,0.572 OD450
5,B5,1.68 OD450
6,B6,1.67 OD450
7,B7,1.61 OD450
8,B8,1.71 OD450
9,B9,1.45 OD450
10,B10,1.88 OD450
11,B11,1.03 OD450
12,B12,1.38 OD450
13,B13,1.92 OD450
14,B14,1.87 OD450

# Molecular target: T4, B7-H3 on B7-H3-expressing CHO cells …
# Assay: flow cytometry, B7-H3-expressing CHO cells, 10 ug/ml
# Method in brief: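 Antibodies at 10 μg/ml in PBS/1% BSA/0.01% NaN3 incubated 60 min on ice with ~1.5e5 cells; parental CHO cells as counterscreen. After washing, read by flow cytometry; values are mean fluorescent intensities (MFI).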
row,Binder,MFI @ 10 ug/ml
1,B1,66800 MFI
2,B2,44000 MFI
3,B3,41000 MFI
4,B4,43500 MFI
5,B5,69900 MFI
6,B6,60100 MFI
7,B7,84200 MFI
8,B8,89100 MFI
9,B9,78600 MFI
10,B10,81300 MFI
11,B11,63200 MFI
12,B12,14100 MFI
13,B13,86600 MFI
14,B14,78300 MFI
